The target of this assay is full length (FL) human recombinant TPPP/p25 (Tubulin Polymerization Promoting Protein) (human) (UniProt O94811). In words: SDS-PAGE without reducing agent; 5 ug protein from the 200 uM stock solution loaded directly onto the gel in the absence of DTE; disulphide-stabilized dimers.

As usually defined, the stoichiometry N is the number of molecules, sites or subunits per partner or assembly. Turning to “full length (FL) human recombinant TPPP/p25 (Tubulin Polymerization Promoting Protein) (from UniProt O94811 1-219) (natural protein; other documents disagree on this pair)”, the stoichiometry N was determined as 2.
